From patent publication US20030165919A1, “Method for the analysis of exogenic and endogenic cell activiation based on measuring the aggregation of receptors” (priority 2000, published 2003)

Experiments:
Assay type in all cases: cell-based
[1] = target: T1, CD11b and CD14 (Homo sapiens, UniProt P08571); assay: FRET flow cytometry: co-assembly of CD11b and CD14 on monocytes; conditions: human monocytes in whole blood, stimulation with the substance alone, 37° C. 15 minutes
T1 construct: endogenous in cells; host or cells: human monocytes in heparinised whole blood (healthy donors and patients)
T1 sequence (P08571 20-345 limits assumed): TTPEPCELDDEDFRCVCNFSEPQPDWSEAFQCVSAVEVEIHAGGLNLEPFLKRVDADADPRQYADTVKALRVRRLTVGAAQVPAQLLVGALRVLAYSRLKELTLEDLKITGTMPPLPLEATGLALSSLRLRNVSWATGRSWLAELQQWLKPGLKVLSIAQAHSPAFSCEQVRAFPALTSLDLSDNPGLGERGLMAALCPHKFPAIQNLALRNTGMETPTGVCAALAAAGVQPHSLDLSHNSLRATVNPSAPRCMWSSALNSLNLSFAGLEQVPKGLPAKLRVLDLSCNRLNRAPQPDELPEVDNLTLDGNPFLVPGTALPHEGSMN
Method: (§1) Aliquots […] of whole blood were incubated with the following stimulatory compounds at 37° C. for 15 minutes: LPS of Salmonella minnesota (0.1-10 nM, Mw 10 kDa), ceramide (primarily stearic acid and nervonic acid) and sulfogalactosyl ceramide (SG-cer, […]), both of which tested LPS free in the LAL assay (Cer, 1 nM-5.5 mM), lysophosphatidyl choline (lyso-PC, 10 mM), phorbol-12-myristate-13-acetate (PMA, 1 mM), N-formyl-L-methionyl-L-leucyl-L-phenyl alamine (fMLP, 1 mM), PE, PC, PI and PS liposomes (10 mm) which had been prepared as described above. All reagents were obtained from Sigma. In addition, the cells were stimulated with HPS70 (7 nM), dHSP70 (7 nM) and SG-cer+dHSP70 (40 nM+7 nM). After incubation, the cells were washed with cold PBS containing 0.1% of NaN3. The synthetic LPS antagonist lipid IVa (“compound-406”, 1-400 ng/ml) and lipid A derived from E. coli (1-100 ng/ml) were made available by courtesy of Dr. S. Kusumoto. The cells were pre-incubated with the LPS antagonist at 37° C. for 15 minutes and then stimulated with LPS at the same temperature (without washing).
(§2) Whole blood cells which had been stimulated or washed ex vivo […] were incubated on ice for 15 minutes with saturation concentrations of monoclonal fluorochrom-conjugated or biotinylated antibodies. The monoclonal antibodies CD11a (clone 25.3.1), CD16a (clone 3G8). CD18 (clone 7E4), CD14 (clone RMO52), CD33 (clone My9-RD1). CD81 (clone Js64) were obtained as R-phyco-erythrine (R-PE) conjugates and CD25 (clone B1.49.9) in biotinylated form from Coulter/Immunotech (Krefeld, Germany). CD11b (clone d12), CD11c (clone S-HCL-3), CD36 (clone CB38), CD47 (clone B6H12), CD81 (clone JS-81) and (Cd55 (clone IA10) in biotinylated form and Streptavidin-R-PE were purchased from Becton/Dickinson/Pharningen (Heidelberg, Germany) CD18 (clone IB4) in biontinylated form and CD40 (clone EA-5) as R-PE conjugate were obtained from Alexis (Grünberg, Germany) and CD14 (clones ×8 and Uchml) and CD3 (clone Cris-7) in biotinylated form and Streptavidin-Cy5 (Sa-Cy5) from Dianova (Hamburg, Germany), CD32 (clone C1KM5) and CD64 (clone 10.1) were obtained as R-PE conjugates from Caltag (Burlingame, U.S.A.) and CD91 (clone 8G1) in biotinylated form from Proen (Heidelberg, Germany). A monoclonal anti-TLRA antibody (clone HTA125) was kindly provided by Dr. Kensuke. Since no energy transfer between the antibodies directed against the CD14/CD11a and CD14/CD11c pairs was detectable either on resting or on stimulated cells, these antibody combinations were not characterised further.
Lysis of erythrocytes and washing were carried out as described (Rothe et al., Thromb. Vasc. Biol. 16 (1996), 1437-1447). After the last washing step, the samples were divided and part of each sample incubated with a saturating amount of SA-Cy5 on ice for 15 minutes and washed before measuring.
For energy transfer experiments, […] aliquots of whole blood were treated with cholesterol/methyl cyclodextrine (C/C) (100 mg/ml/4.6 mg/ml) or 2-hydroxypropyl-β-cyclodextrine (0.15 mg/ml) at 37° C. for 30 minutes and then stimulated further with LPS (4 nM) or ceramide (40 nM) as described above. The energy transfer between CD14 and CD11b was measured.
A “FACSCalibur” flow cytometer (Becton Dickinson) equipped with an air-cooled 15 mW argon laser (excitation wavelength 488 nm), a diode laser (excitation wavelength […]) and standard filters [channel 1 (FITC): 530/30 nm band pass filter; channel 2 (R-PE being used as donor dye); 585/47 nm band pass filter; channel 3 (PerCP): pass having a length of >670 nm; and channel 4 (Cy5being used as recipient dye): 661/16 nm bad pass filter] was used. The Cellquest software (Becton Dickinson) was used for the measurements. […] Measurement was conducted without compensation. 50,000 leukocytes were required in the “list” modus, forward scattering (FSC) being used as a trigger signal. […]

[2] = target: T2, receptor cluster comprising CD14 (Homo sapiens, UniProt P08571); assay: FRET with a series of antibody pairs: receptor cluster comprising CD14 on monocytes; conditions: stimulation of the cells as control
T2 construct: endogenous in cells; host or cells: human monocytes in whole blood
T2 sequence (P08571 20-345 limits assumed): T1 sequence (P08571 20-345 limits assumed)
Method: as §1
(§3) Whole blood cells which had been stimulated or washed ex vivo […] were incubated on ice for 15 minutes with saturation concentrations of monoclonal fluorochrom-conjugated or biotinylated antibodies. The monoclonal antibodies CD11a (clone 25.3.1), CD16a (clone 3G8). […]

[3] = target: T3, CD18(7E4)/CD14 (×8) (Homo sapiens, UniProt P08571); assay: FRET co-assembly of CD18 with CD14 on monocytes; conditions: LPS 4 nM, ceramide 40 nM, LTA 1 μg/ml, HSP70 7 nM; mean ± SD of 10 experiments; >5% = positive transfer
T3 construct: endogenous in cells; host or cells: human monocytes in whole blood
T3 sequence (P08571 20-345 limits assumed): T1 sequence (P08571 20-345 limits assumed)
Method: as §1, §3

[4] = target: T4, CD36/CD14 (×8) (Homo sapiens, UniProt P08571); assay: FRET co-assembly of CD36 with CD14 on monocytes; conditions: LPS 4 nM, ceramide 40 nM, LTA 1 μg/ml, HSP70 7 nM; mean ± SD of 10 experiments; >5% = positive transfer
T4 construct: endogenous in cells; host or cells: human monocytes in whole blood
T4 sequence (P08571 20-345 limits assumed): T1 sequence (P08571 20-345 limits assumed)
Method: as §1, §3

[5] = target: T5, CD55/CD14 (Uchm1) (Homo sapiens, UniProt P08571); assay: FRET co-assembly of CD55 with CD14 on monocytes; conditions: LPS 4 nM, ceramide 40 nM, LTA 1 μg/ml, HSP70 7 nM; mean ± SD of 10 experiments; >5% = positive transfer
T5 construct: endogenous in cells; host or cells: human monocytes in whole blood
T5 sequence (P08571 20-345 limits assumed): T1 sequence (P08571 20-345 limits assumed)
Method: as §1, §3

[6] = target: T6, CD81/CD14 (×8) (Homo sapiens, UniProt P08571); assay: FRET co-assembly of CD81 with CD14 on monocytes; conditions: LPS 4 nM, ceramide 40 nM, LTA 1 μg/ml, HSP70 7 nM, mean ± SD of 10 experiments
T6 construct: endogenous in cells; host or cells: human monocytes in whole blood (donors; also sepsis and CAD patients)
T6 sequence (P08571 20-345 limits assumed): T1 sequence (P08571 20-345 limits assumed)
Method: as §1
as §2, with “further. […]” for “further.”

[7] = target: T7, TLR-4/CD14 (×8) (Homo sapiens, UniProt P08571); assay: FRET co-assembly of TLR-4 with CD14 on monocytes; conditions: LPS 4 nM, ceramide 40 nM, LTA 1 μg/ml, HSP70 7 nM; mean ± SD of 10 experiments; >5% = positive transfer
T7 construct: endogenous in cells; host or cells: human monocytes in whole blood
T7 sequence (P08571 20-345 limits assumed): T1 sequence (P08571 20-345 limits assumed)
Method: as §1, §3

[8] = target: T8, CD32/CD14 (Uchm1) (Homo sapiens, UniProt P08571); assay: FRET co-assembly of CD32 with CD14 on monocytes; conditions: LPS 4 nM, ceramide 40 nM, LTA 1 μg/ml, HSP70 7 nM; mean ± SD of 10 experiments; >5% = positive transfer
T8 construct: endogenous in cells; host or cells: human monocytes in whole blood
T8 sequence (P08571 20-345 limits assumed): T1 sequence (P08571 20-345 limits assumed)
Method: as §1, §3

[9] = target: T9, CD64/CD14 (Uchm1) (Homo sapiens, UniProt P08571); assay: FRET co-assembly of CD64 with CD14 on monocytes; conditions: LPS 4 nM, ceramide 40 nM, LTA 1 μg/ml, HSP70 7 nM; mean ± SD of 10 experiments; >5% = positive transfer
T9 construct: endogenous in cells; host or cells: human monocytes in whole blood
T9 sequence (P08571 20-345 limits assumed): T1 sequence (P08571 20-345 limits assumed)
Method: as §1, §3

Row | Compound | co-assembly of CD11b and CD14 (energy transfer between monoclonal antibodies) [1] | energy transfer between any of the antibody pairs [2] | energy transfer CD18(7E4)/CD14 (×8) [3] [%] | energy transfer CD36/CD14 (×8) [4] [%] | energy transfer CD55/CD14 (Uchm1) [5] [%] | energy transfer CD81 (JS-81)/CD14 (×8) ([6]; CD81 clone JS-81) [%] | energy transfer CD81 (Js64)/CD14 (×8) ([6]; CD81 clone Js64) [%] | energy transfer TLR-4/CD14 (×8) [7] [%] | energy transfer CD32/CD14 (Uchm1) [8] [%] | energy transfer CD64/CD14 (Uchm1) [9] [%]
1 | CSCC[C@H](NC=O)C(=O)N[C@@H](CC(C)C)C(=O)N[C@@H](Cc1ccccc1)C(=O)O [fMLP, N-formyl-L-methionyl-L-leucyl-L-phenyl alamine] | neither fMLP or PMA showed any effect | did not result in any significant energy transfer | – | – | – | – | – | – | – | –
2 | HSP70: Heat shock protein 70 obtained from Stressgen | induces clustering of CD11b and CD14 | – | 6.0 ± 2.1 | 8.2 ± 1.8 | 6.0 ± 0.5 | 1.0 ± 0.1 | 3.8 ± 2.5 | 5.4 ± 0.6 | 5.3 ± 2.1 | 10.1 ± 1.5
3 | dHSP70: HSP70 delipidated in ethanol/diethyl ether | does not induce any receptor complex | – | – | – | – | – | – | – | – | –
